Measured values taken from patent publication US20120114590A1 (priority 2005, published 2012).
Where two headings read alike, the source gives them in different places. mPEG 20 kDa propionaldehyde = 20 kD methoxy-polyethylene glycol propionaldehyde, N-terminally conjugated

How the values were obtained:
HSV-2 = HSV-2 inhibition of cytopathic effect assay in Vero cells; type: cell-based, Herpes Simplex Virus-2; settings: CPE assay
Description: The assay involves the killing of Vero cells by the cytopathic HSV-2 virus and the inhibition of cell killing by IL-28 and EL-29. The Vero cells are propagated in Dulbecco's modified essential medium (DMEM) containing phenol red with 10% horse serum, 1% glutamine and 1% penicillin-streptomycin, while the CPE inhibition assays are performed in DMEM without phenol red with 2% FBS, 1% glutamine and 1% Pen-Strep. On the day preceding the assays, cells were trypsinized (1% trypsin-EDTA), washed, counted and plated out at 10^4 cells/well in a 96-well flat-bottom BioCoat® plates (Fisher Scientific, Pittsburgh, Pa.) in a volume of 100 μl/well. The next morning, the medium was removed and a pre-titered aliquot of virus was added to the cells. The amount of virus used is the maximum dilution that would yield complete cell killing (>80%) at the time of maximal CPE development. Cell viability is determined using a CellTiter 96® reagent (Promega) according to the manufacturer's protocol, using a Vmax plate reader (Molecular Devices, Sunnyvale, Calif.). Compounds are tested at six concentrations each, diluted in assay medium in a half-log series. Acyclovir was used as a positive control. […] The average background and drug color-corrected data for percent CPE reduction and percent cell viability at each concentration are determined relative to controls and the IC50 calculated relative to the TC50.

HCV replicon [1] = settings: IFNα at 10 IU/ml, replicon clones, compared to untreated control cell lines; cited from earlier work
HCV replicon [2] = test: HCV Replicon model in AVA5 cells, HCV RNA by dot blot hybridization assay; settings: three consecutive days of treatment
Daudi cells = test: Daudi cell proliferation (Alamar Blue); type: cell-based, human; settings: 1000 ng/ml to 0.5 ng/ml, 72 h
Description: Human Daudi cells were suspended in RPMI+10% FBS at 50,000 cells/milliliter and 5000 cells were plated per well in a 96 well plate. […] IL-29-CEE was used at a concentration range of from 1000 ng/ml to 0.5 ng/ml. […] IFN-α2a was used at a concentration range of from 62 ng/ml to 0.03 ng/ml. Cells were incubated for 72 h at 37° C.

[3] = tested on: 293 HEK cells overexpressing zcytor19; test: Inhibition of ligand-induced ISRE-luciferase signaling by soluble receptors; type: cell-based, human; settings: 10 ng/ml ligand, 10 micrograms/ml soluble receptor, 4-hour; relative to PBS alone
Adenovirus [4] = type: cell-based
Parainfluenza virus [5] = type: cell-based
[6] = tested on: Respiratory syncytial virus; type: cell-based
Rhino 2 [7] = type: cell-based, rhino virus; settings: Rhino 2, KB
Rhino 9 [8] = type: cell-based, rhino virus; settings: Rhino 9, HeLa
Coxsackie B4 virus [9] = type: cell-based; settings: KB
[10] = tested on: Influenza (type A [H3N2]); type: cell-based; settings: Maden-Darby Canine Kidney
[11] = tested on: Influenza (type A [H3N2]); type: cell-based; settings: Vero
Vaccinia virus [12] = type: cell-based; settings: Vero
West Nile virus [13] = type: cell-based; settings: Vero
Dengue virus [14] = type: cell-based; settings: Vero
[15] = tested on: Venezuelan equine encephalitis virus; type: cell-based; settings: Vero
Pichinde virus [16] = type: cell-based
Polio virus [17] = type: cell-based; settings: Vero
Adenovirus [18] = type: cell-based; settings: A549 cells, Neutral Red Assay
Parainfluenza virus [19] = type: cell-based; settings: MA-104 cells, Neutral Red Assay
[20] = tested on: Respiratory syncytial virus; type: cell-based; settings: MA-104 cells, Neutral Red Assay
Rhino 2 [21] = type: cell-based, rhino virus; settings: Rhino 2, KB cells, Neutral Red Assay
Rhino 9 [22] = type: cell-based, rhino virus; settings: Rhino 9, HeLa cells, Neutral Red Assay
Coxsackie B4 virus [23] = type: cell-based; settings: KB cells, Neutral Red Assay
[24] = tested on: Influenza (type A [H3N2]); type: cell-based; settings: Maden-Darby Canine Kidney cells, Neutral Red Assay
[25] = tested on: Influenza (type A [H3N2]); type: cell-based; settings: Vero cells, Neutral Red Assay
Vaccinia virus [26] = type: cell-based; settings: Vero cells, Neutral Red Assay
West Nile virus [27] = type: cell-based; settings: Vero cells, Neutral Red Assay
Dengue virus [28] = type: cell-based; settings: Vero cells, Neutral Red Assay
[29] = tested on: Venezuelan equine encephalitis virus; type: cell-based; settings: Vero cells, Neutral Red Assay
Pichinde virus [30] = type: cell-based; remark: listed apart in the source
Polio virus [31] = type: cell-based; settings: Vero cells, Neutral Red Assay
AML-12 cells = test: ISG induction in the mouse liver cell line AML-12 (real-time PCR); type: cell-based; settings: AML-12, 20 ng/ml, 48 hour time point; mRNA relative to HPRT gene expression
Description: AML-12 cells were plated in 6-well plates in complete DMEM media at a concentration of 2×10^6 cells/well. […] As a control, cells were either stimulated with mouse IFNα (positive control) or unstimulated (negative). […] RNA was isolated from cell pellets using RNAEasy-kit® (Qiagen, Valencia, Calif.). RNA was treated with DNase (Millipore, Billerica, Mass.) to clean RNA of any contaminating DNA. cDNA was generated using Perkin-Elmer RT mix. ISG gene induction was evaluated by real-time PCR using primers and probes specific for mouse OAS, Pkr and Mx1. To obtain quantitative data, HPRT real-time PCR was duplexed with ISG PCR. A standard curve was obtained using known amounts of RNA from IFN-stimulated mouse PBLs. All data are shown as expression relative to internal HPRT expression.

[32] = tested on: liver, spleen and blood of mice; test: ISG gene expression (OAS, Pkr, Mx1) in liver, spleen and blood of injected C57BL/6 mice (real-time PCR); type: in vivo, mouse; settings: C57BL/6 mice, i.p or i.v, 10 μg-250 μg
Description: Mice were sacrificed at various time points (1 hr-48 hr). Spleens and livers were isolated from mice, and RNA was isolated. RNA was also isolated from the blood cells. The cells were pelleted and RNA isolated from pellets using RNAEasy®-kit (Qiagen). RNA was treated with DNase (Amicon) to rid RNA of any contaminating DNA. cDNA was generated using Perkin-Elmer RT mix (Perkin-Elmer). ISG gene induction was measured by real-time PCR using primers and probes specific for mouse OAS, Pkr and Mx1. To obtain quantitative data, HPRT real-time PCR was duplexed with ISG PCR. A standard curve was calculated using known amounts of IFN-stimulated mouse PBLs. All data are shown as expression relative to internal HPRT expression.

HHV-8 = HHV-8 replication in BCBL-1 cells (TaqMan PCR extracellular HHV-8 DNA; dye uptake TC50); type: cell-based, human herpesvirus-8; settings: six days
Description: The therapeutic index (TI) is calculated as TC50/IC50.

For IFNα, the “antiviral activity against HSV-2” value (HSV-2) is listed as “no antiviral activity” and the “reduction of the amount of HCV RNA” value (HCV replicon [1]) is listed as 85%.

B1: PEG-rIL-29-d2-7 (conjugate)
chain: {mPEG 20 kDa propionaldehyde}-MKPTTTGKGCHIGRFKSLSPQELASFKKARDALEESLKLKNWSCSSPVFPGNWDLRLLQVRERPVALEAELALTLKVLEAAAGPALEDVLDQPLHTLHHILSQLQACIQPQPTAGPRPRGRLHHWLHRLQEAPKKESAGCLEASVTFNLFRLLTRDLKYVADGNLSLRTSTHPEST
For B1, the “EC50 (HCV RNA, dot blot hybridization assay)” value (HCV replicon [2]) was 0.000516 µg/mL.

B2: IL-29-CEE: IL-29 conjugated with glu tag (protein, UniProt Q8IU54 20-200, looked up)
Interferon lambda-1: GPVPTSKPTTTGKGCHIGRFKSLSPQELASFKKARDALEESLKLKNWSCSSPVFPGNWDLRLLQVRERPVALEAELALTLKVLEAAAGPALEDVLDQPLHTLHHILSQLQACIQPQPTAGPRPRGRLHHWLHRLQEAPKKESAGCLEASVTFNLFRLLTRDLKYVADGNLCLRTSTHPEST
modifications: Glu-Glu tag
notes: IL-29 conjugated with glu tag
With B2 the “effect on proliferation of Daudi cells” value (Daudi cells) was “no significant effect”.

B3: IL-28A: human IL-28A cytokine polypeptide (zcyto20), e.g. SEQ ID NO:18; CHO-derived in Examples 16 and 18 (protein, listed as Homo sapiens)
chain: MKLDMTGDCTPVLVLMAAVLTVTGAVPVARLHGALPDARGCHIAQFKSLSPQELQAFKRAKDALEESLLLKDCRCHSRLFPRTWDLRQLQVRERPMALEAELALTLKVLEATADTDPALVDVLDQPLHTLHHILSQFRACIQPQPTAGPRTRGRLHHWLYRLQEAPKKESPGCLEASVTFNLFRLLTRDLNCVASGDLCV
modifications: SIGNAL (1)...(25)
For B3, the “Percent Inhibition of Ligand-induced ISRE Signaling by HuCRF2-4-Fc” value [3] was 80%, the “Percent Inhibition of Ligand-induced ISRE Signaling by Huzcytor19-Fc” value [3] was 92% and the “Percent Inhibition of Ligand-induced ISRE Signaling by Huzcytor19-Fc/huCRF2-4-Fc” value [3] was 16%. For the same molecule, the “Percent Inhibition of Ligand-induced ISRE Signaling by Muzcytor19-Ig” value [3] was 91%, the “EC50 Visual” value (Adenovirus [4]; A549) was greater than 10 µg/mL and the “IC50 Visual” value (Adenovirus [4]; A549, numerator of SI) was greater than 10 µg/mL. For the same molecule, the “EC50 Visual” value (Parainfluenza virus [5]; MA-104) was greater than 10 µg/mL, the “IC50 Visual” value (Parainfluenza virus [5]; MA-104, numerator of SI) was greater than 10 µg/mL and the “EC50 Visual” value ([6]; MA-104) was greater than 10 µg/mL. The “IC50 Visual” value ([6]; MA-104, numerator of SI) was greater than 10 µg/mL, the “EC50 Visual” value (Rhino 2 [7]) was greater than 10 µg/mL and the “IC50 Visual” value (Rhino 2 [7]; numerator of SI) was greater than 10 µg/mL. For the same molecule, the “EC50 Visual” value (Rhino 9 [8]) was greater than 10 µg/mL, the “IC50 Visual” value (Rhino 9 [8]; numerator of SI) was greater than 10 µg/mL and the “EC50 Visual” value (Coxsackie B4 virus [9]) was greater than 10 µg/mL. The “IC50 Visual” value (Coxsackie B4 virus [9]; numerator of SI) was greater than 10 µg/mL, the “EC50 Visual” value [10] was greater than 10 µg/mL and the “IC50 Visual” value ([10]; numerator of SI) was greater than 10 µg/mL. The “EC50 Visual” value [11] was 0.1 µg/mL, the “IC50 Visual” value ([11]; numerator of SI) was greater than 10 µg/mL and the “EC50 Visual” value (Vaccinia virus [12]) was greater than 10 µg/mL. For the same molecule, the “IC50 Visual” value (Vaccinia virus [12]; numerator of SI) was greater than 10 µg/mL, the “EC50 Visual” value (West Nile virus [13]) was 0.01 ng/mL and the “IC50 Visual” value (West Nile virus [13]; numerator of SI) was greater than 10 µg/mL. The “EC50 Visual” value (Dengue virus [14]) was 0.01 µg/mL, the “IC50 Visual” value (Dengue virus [14]; numerator of SI) was greater than 10 µg/mL and the “EC50 Visual” value [15] was 0.01 µg/mL. For the same molecule, the “IC50 Visual” value ([15]; numerator of SI) was greater than 10 µg/mL, the “EC50 Visual” value (Pichinde virus [16]) was greater than 10 µg/mL and the “IC50 Visual” value (Pichinde virus [16]) was greater than 10 µg/mL. The “EC50 Visual” value (Polio virus [17]) was greater than 10 µg/mL, the “IC50 Visual” value (Polio virus [17]; numerator of SI) was greater than 10 µg/mL and the “EC50 NR” value (Adenovirus [18]) was greater than 10 µg/mL. For the same molecule, the “IC50 NR” value (Adenovirus [18]) was greater than 10 µg/mL, the “EC50 NR” value (Parainfluenza virus [19]) was greater than 10 µg/mL and the “IC50 NR” value (Parainfluenza virus [19]) was greater than 10 µg/mL. The “EC50 NR” value [20] was greater than 10 µg/mL, the “IC50 NR” value [20] was greater than 10 µg/mL and the “EC50 NR” value (Rhino 2 [21]) was greater than 10 µg/mL. For the same molecule, the “IC50 NR” value (Rhino 2 [21]) was greater than 10 µg/mL, the “EC50 NR” value (Rhino 9 [22]) was 1.726 µg/mL and the “IC50 NR” value (Rhino 9 [22]) was greater than 10 µg/mL. The “EC50 NR” value (Coxsackie B4 virus [23]) was greater than 10 µg/mL, the “IC50 NR” value (Coxsackie B4 virus [23]) was greater than 10 µg/mL and the “EC50 NR” value [24] was greater than 10 µg/mL. The “IC50 NR” value [24] was greater than 10 µg/mL, the “EC50 NR” value [25] was 0.25 µg/mL and the “IC50 NR” value [25] was greater than 10 µg/mL. For the same molecule, the “EC50 NR” value (Vaccinia virus [26]) was greater than 10 µg/mL, the “IC50 NR” value (Vaccinia virus [26]) was greater than 10 µg/mL and the “EC50 NR” value (West Nile virus [27]) was 0.1 ng/mL. The “IC50 NR” value (West Nile virus [27]) was greater than 10 µg/mL, the “EC50 NR” value (Dengue virus [28]) was 0.1 µg/mL and the “IC50 NR” value (Dengue virus [28]) was greater than 10 µg/mL. For the same molecule, the “EC50 NR” value [29] was 0.035 µg/mL, the “IC50 NR” value [29] was greater than 10 µg/mL and the “EC50 NR” value (Pichinde virus [30]) was greater than 10 µg/mL. For the same molecule, the “IC50 NR” value (Pichinde virus [30]) was greater than 10 µg/mL, the “EC50 NR” value (Polio virus [31]) was greater than 1.672 µg/mL and the “IC50 NR” value (Polio virus [31]) was greater than 10 µg/mL. The Mx1 (AML-12 cells) was 0.06, the OAS (AML-12 cells) was 0.04 and the PkR (AML-12 cells) was 0.02. For the same molecule, the “ISG gene expression (OAS, Pkr, Mx1) in the livers, spleen and blood of mice” value [32] was “did not induce ISG gene expression” and the “IC50 (extracellular HHV-8 DNA)” value (HHV-8) was 1 µg/mL.
